Data published in patent US20040002586A1.

Target: recombinant human interleukin-22 (IL-22), expressed in E. coli from pEThTIF, refolded, not glycosylated (human) (UniProt Q9GZX6)
Experiment: X-ray crystal structure, surface buried between monomer A and monomer B

- interface area: 2250 Å^2
Substance: recombinant human interleukin-22 (IL-22), expressed in E. coli from pEThTIF, refolded, not glycosylated (from UniProt Q9GZX6 29-179) (ligand)
